From patent US11413329B2, “Cancer cell trap” (BOARD OF REGENTS, THE UNIVERSITY OF TEXAS SYSTEM, priority 2012, dated 2022)
Entries after “also recorded” stand apart in the source; their conditions may differ.

Experiments:
B16F10 melanoma cells = experiment: Murine cancer metastasis model: melanoma cell migration to subcutaneous microsphere implants and lymph nodes; assay type: in vivo, C57BL/6 mice; settings: B16F10 cells intraperitoneal
Procedure: The animal experiments were carried out using C57BL/6 mice (6-10 week old) from Jackson Laboratory (Bar Harbor, Me., USA). This murine cancer metastasis model comprised of two consecutive steps. First, biomaterial microspheres (75 mg/0.5 ml saline/mouse) were implanted in the dorsal subcutaneous space of mice to elicit localized subcutaneous inflammation. Second, after microsphere implantation for different periods of time (6 hours-14 days), cancer cells (5×10^6 cells/0.2 ml/mouse) were transplanted in the peritoneal cavity. 24 h after tumor cell trans-plantation the animals were sacrificed. The vital organs, lymph nodes, the microsphere implants and surrounding tissues were then recovered and frozen in OCT embedding media (Polysciences Inc., Warrington, Pa., USA) at −80° C. The peripheral blood was also collected for further analysis. […]
Immunohistological analyses for CD11b+ inflammatory cells and HMB45+ melanoma cells were carried out to assess the degree of implant-mediated inflammatory responses and melanoma cell migration, respectively. […] FITC-conjugated antibody incubated tissue section was ready for image analysis. […] All tissue section images were taken using a Leica fluorescence microscope (Leica Microsystems GmbH, Wetzlar, Germany) equipped with a Retiga-EXi CCD camera (QImaging, Surrey, BC, Canada) as described earlier. […]

[1] = tested on: CD11b+ inflammatory cells; experiment: Murine cancer metastasis model: inflammatory cell recruitment to subcutaneous microsphere implants; assay type: in vivo, C57BL/6 mice; settings: vs control
Procedure: The animal experiments were carried out using C57BL/6 mice (6-10 week old) from Jackson Laboratory (Bar Harbor, Me., USA). This murine cancer metastasis model comprised of two consecutive steps. First, biomaterial microspheres (75 mg/0.5 ml saline/mouse) were implanted in the dorsal subcutaneous space of mice to elicit localized subcutaneous inflammation. Second, after microsphere implantation for different periods of time (6 hours-14 days), cancer cells (5×10^6 cells/0.2 ml/mouse) were transplanted in the peritoneal cavity. 24 h after tumor cell trans-plantation the animals were sacrificed. The vital organs, lymph nodes, the microsphere implants and surrounding tissues were then recovered and frozen in OCT embedding media (Polysciences Inc., Warrington, Pa., USA) at -80° C. The peripheral blood was also collected for further analysis. Eight μm thick sections were sliced using a Leica Cryostat (CM1850) and placed on poly-L-lysine coated slides for histological and immunohistochemical analyses. […] FITC-conjugated antibody incubated tissue section was ready for image analysis. […] All tissue section images were taken using a Leica fluorescence microscope (Leica Microsystems GmbH, Wetzlar, Germany) equipped with a Retiga-EXi CCD camera (QImaging, Surrey, BC, Canada) as described earlier. […]

[2] = tested on: PC3 prostate cancer cells; experiment: PC3 prostate cancer cell recruitment to PEG hydrogel cancer cell traps; assay type: in vivo, mouse; settings: C57 mice, released from subcutaneous PEG hydrogel, 24 hours after intravenous transplantation, fluorescence intensity, vs saline
Source text: Using near-infrared labeled PC3 prostate cell transplanted mice, the effect of hydrogel cancer cell traps in reducing cancer metastasis was studied. Specifically, PEG hydrogel was fabricated as following. Carboxyl-terminal PEG derivative polymer was synthesized using free radical polymerization. In brief, 4,4′-azobis(4-cyanovaleric acid) and various weight ratios (10:1-20:1) of 2-(2-Methoxyethoxy)ethyl methacrylate (MEO2MA) and oligo(ethylene glycol)monomethyl ether methacrylates (Mw:475;OEOMA475) were dissolved in ethanol to form a 20 wt % monomer solution. The solution was purged with nitrogen gas for 10 min and incubated at 60° C. for 6 h. The solvent was then removed with evaporation under vacuum and the crude polymers are re-dissolved in DI water and were purified with exhaust dialysis against DI water and then lyophilized. The low critical solution temperature (LCST) of the carboxyl-terminal PEG derivative polymers was determined using an UV-vis spectrometer. By changing the molar ratios of MEO2MA to OEOMA475, the carboxyl-terminal PEG derivative polymer with LCST of 32° C. was achieved and the polymer used to fabricate thermogelling bioactive hydrogel scaffold as described below. Incorporation of chemokines/cytokines to PEG hydrogel was achieved by physical adsorption. PEG hydrogel was mixed with vascular endothelial growth factor (VEGF) (100 ng/ml), erythropoietin (EPO) (100 international unit/ml), stromal derived factor-1α (SDF-1α) or saline (as control). The hydrogel samples were then injected into the subcutaneous cavity (under the skin) of C57 mice via 20 gauge needles. The mice were then transplanted intravenously with PC3 prostate cancer cells (5×10^6/mouse).

[3] = Release rates of chemokines/growth factors from cancer cell traps; settings: for Release rates: optimal release rate from cancer cell traps; for Duration: release from cancer cell traps
Source text: The Experiments have been carried out to determine the release rates of various cancer stem cell chemokines/growth factors from cancer cell traps. The optimal release rates for each biomolecules are listed below.
Cancer cell trap size and dimension for human patients. All studies carried out thus far used mice cancer models. Since the cancer cells are recruited based on the chemokines gradient, localized concentrations, but not the systemic concentrations, are the determining factors. In other words, the effectiveness of the cancer cell traps are determined on the localized release rates as listed in the above table.

[4] = Release kinetics of cytokines/growth factors from MB scaffolds; settings: gelatin MB scaffolds; for sustained release, share of total amounts per day: after the bolus; for bolus release: within the first 24 hours
Source text: Chemokine/growth factor loaded PLGA scaffolds were fabricated using our protein microbubble fabrication method. Briefly, 2-20% w/v protein solution with various chemokines was overlaid with nitrogen gas and sonicated using a probe sonicator (Ultrasonix, Bothell, Wash.) at 20 kHz for 10 seconds. Protein solution can be composed of single proteins or protein mixtures in different ratios. The potential protein candidates including albumin, collagen, gelatin, immunoglobulins, extracellular matrix proteins, fibronectin, etc. Protein microbubble solutions can be added to PLGA (3-15% w/v in 1,4 dioxane) in a 1:1 ratio and gently agitated. They were then quenched in liquid nitrogen and lyophilized for 72 hours at 0.01-0.1 mBar vacuum in a Freezone 12 lyophilizer (Labconco, Kansas City, Mo., USA).
The microbubble (MB) scaffolds were analyzed using Scanning Electron Microscopy. […] Protein distribution and internal architecture of the scaffolds was determined by staining histological sections with Coomassie Blue as described earlier. […] In contrast, Coomassie Blue staining of the gelatin MB scaffold sections indicated the presence of protein around the pores and throughout the matrix of the gelatin MB scaffolds (FIG. 12C). The compressive strength of the scaffolds was tested using an MTS Insight 2 machine fitted with a 500 N load cell. Samples (5 mm width and 5 mm thickness) were compressed to 10% strain at a deflection rate of 2 mm/min. The Young's modulus was calculated from the slope of the curve similar to our earlier publication. […] Finally, the release kinetics of cytokines/growth factors from MB scaffolds was determined using Oyster 800-conjugated EPO and Oyster 800-conjugated SDF.

Row | Molecule | recruitment of PC3 prostate cancer cells to the implant sites [2] | Release rates [3] | Duration [3] [days] | also measured
1 | c1cc(CN2CCCNCCNCCCNCC2)ccc1CN1CCCNCCNCCCNCC1 [AMD3100] | – | – | – | accumulation of melanoma cells in lymph nodes (B16F10 melanoma cells; PLA microsphere-bearing mice, vs saline): no effect; recruitment of melanoma cells (HMB45+) to the subcutaneous microsphere implantation site (B16F10 melanoma cells; subcutaneous microsphere implants, 24 h after transplantation, vs control): drastically reduced; also recorded: inhibited; inflammatory cell (CD11b+) recruitment to the subcutaneous microsphere implantation site [1]: drastically reduced
2 | EPO: erythropoietin, released from cancer cell traps | increased the recruitment | 1.5-2.5 international international units/1 milliliter of hydrogel/particle cancer traps or 1 cubic centimeters scaffold traps/days | >30 | –
3 | Hepatocyte growth factor (HGF/SF): hepatocyte growth factor/scatter factor released from cancer cell traps | – | 15 ng/1 milliliter of ng/1 milliliter of hydrogel/particle cancer traps or 1 cubic centimeters scaffold traps/day | >28 | –
4 | Oyster 800-conjugated EPO: NIR dye conjugated EPO released from gelatin MB scaffolds | – | – | – | sustained release, share of total amounts per day [4]: approximately 2%; bolus release [4]: 20%
5 | Oyster 800-conjugated SDF: NIR dye conjugated SDF released from gelatin MB scaffolds | – | – | – | sustained release, share of total amounts per day [4]: approximately 2%; bolus release [4]: 20%
6 | RANTES/CCL5: chemokine released from cancer cell traps | – | 10 ng/1 milliliter of ng/1 milliliter of hydrogel/particle cancer traps or 1 cubic centimeters scaffold traps/day | >21 | –
7 | SDF-1α | increased the recruitment | 100 ng/1 milliliter of ng/1 milliliter of hydrogel/particle cancer traps or 1 cubic centimeters scaffold traps/day | >24 | –
8 | VEGF | increased the recruitment | – | – | –
